The target of the assay is recombinant human IgG1 Fc fragment (recFc), residues 236–444 of the rituximab heavy chain, non-glycosylated homodimer (human). Kind of assay: crystal structure; co-crystal of the complex isolated by SEC after mixing affitin and Fc chain 4:1; hanging drop, 20 °C, 24% w/v PEG8000, 0.1 M Tris/HCl pH 8.5; space group P2_(1), 2.90 Å. A general note: In gel filtration, larger molecules generally elute earlier.

Take “recombinant human IgG1 Fc fragment (recFc), residues 236–444 of the rituximab heavy chain, non-glycosylated homodimer (domain or fragment)”: the stoichiometry N (chains in the oligomer) worked out at 2.

Source of the values: PMC12135134.
